In patent US20040002124A1:

Legend:
[1] = target: α6β1 integrin on human cells (human) (UniProt P23229); assay: cell-based or functional assay
[2] = target: αVβ3 integrin on cells (human) (UniProt P06756); assay: cell-based or functional assay
Chain of αVβ3 integrin on cells (human) (P06756 31-1048, chain 1 of 2): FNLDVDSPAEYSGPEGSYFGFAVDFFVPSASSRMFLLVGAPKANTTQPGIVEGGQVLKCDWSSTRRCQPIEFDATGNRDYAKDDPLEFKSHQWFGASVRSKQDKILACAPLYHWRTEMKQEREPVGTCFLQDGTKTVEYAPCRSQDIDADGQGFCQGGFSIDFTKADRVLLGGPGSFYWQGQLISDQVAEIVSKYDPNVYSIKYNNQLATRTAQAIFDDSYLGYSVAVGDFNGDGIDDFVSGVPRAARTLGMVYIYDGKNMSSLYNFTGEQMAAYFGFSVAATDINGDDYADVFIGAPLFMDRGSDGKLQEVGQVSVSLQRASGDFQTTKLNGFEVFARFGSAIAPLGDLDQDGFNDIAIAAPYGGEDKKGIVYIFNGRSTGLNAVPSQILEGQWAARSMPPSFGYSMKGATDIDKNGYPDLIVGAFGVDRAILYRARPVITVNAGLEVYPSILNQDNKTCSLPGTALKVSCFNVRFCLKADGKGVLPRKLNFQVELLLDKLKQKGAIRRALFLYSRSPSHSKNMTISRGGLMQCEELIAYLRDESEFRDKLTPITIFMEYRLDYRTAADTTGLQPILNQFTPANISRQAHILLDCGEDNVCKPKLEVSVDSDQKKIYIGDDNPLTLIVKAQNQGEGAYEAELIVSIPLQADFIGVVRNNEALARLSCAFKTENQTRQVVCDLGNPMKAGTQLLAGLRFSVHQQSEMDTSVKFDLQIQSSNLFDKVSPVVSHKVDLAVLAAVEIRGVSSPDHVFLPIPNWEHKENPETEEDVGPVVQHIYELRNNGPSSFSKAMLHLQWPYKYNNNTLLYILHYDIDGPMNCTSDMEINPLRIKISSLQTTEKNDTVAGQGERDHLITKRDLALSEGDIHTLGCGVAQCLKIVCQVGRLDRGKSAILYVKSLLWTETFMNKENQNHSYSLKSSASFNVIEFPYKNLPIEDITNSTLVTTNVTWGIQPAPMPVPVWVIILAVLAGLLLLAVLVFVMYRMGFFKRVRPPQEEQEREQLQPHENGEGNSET
Chain of αVβ3 integrin on cells (human) (P05106 27-788, chain 2 of 2, further chain): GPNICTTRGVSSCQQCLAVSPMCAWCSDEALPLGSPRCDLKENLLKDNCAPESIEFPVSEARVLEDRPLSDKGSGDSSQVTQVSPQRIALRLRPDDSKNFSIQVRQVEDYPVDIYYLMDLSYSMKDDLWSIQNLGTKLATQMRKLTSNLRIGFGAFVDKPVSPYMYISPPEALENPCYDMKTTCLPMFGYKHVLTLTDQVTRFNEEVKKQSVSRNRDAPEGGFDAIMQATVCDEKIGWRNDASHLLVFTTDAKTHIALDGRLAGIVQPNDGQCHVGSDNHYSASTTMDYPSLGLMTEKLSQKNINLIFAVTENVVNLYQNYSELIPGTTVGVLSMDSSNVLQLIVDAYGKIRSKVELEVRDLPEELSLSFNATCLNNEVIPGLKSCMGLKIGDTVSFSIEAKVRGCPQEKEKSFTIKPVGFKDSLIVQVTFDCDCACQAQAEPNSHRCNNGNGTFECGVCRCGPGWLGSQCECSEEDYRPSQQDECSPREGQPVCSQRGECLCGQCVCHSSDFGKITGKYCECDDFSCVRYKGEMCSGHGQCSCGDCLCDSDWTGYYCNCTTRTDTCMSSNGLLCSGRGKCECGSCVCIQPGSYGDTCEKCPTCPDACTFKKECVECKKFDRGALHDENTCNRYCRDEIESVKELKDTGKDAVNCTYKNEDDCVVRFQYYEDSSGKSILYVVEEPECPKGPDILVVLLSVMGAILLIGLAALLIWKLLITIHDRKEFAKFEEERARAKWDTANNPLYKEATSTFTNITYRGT

Chain of α6β1 integrin on human cells (human) (P23229 24-1130, chain 1 of 2): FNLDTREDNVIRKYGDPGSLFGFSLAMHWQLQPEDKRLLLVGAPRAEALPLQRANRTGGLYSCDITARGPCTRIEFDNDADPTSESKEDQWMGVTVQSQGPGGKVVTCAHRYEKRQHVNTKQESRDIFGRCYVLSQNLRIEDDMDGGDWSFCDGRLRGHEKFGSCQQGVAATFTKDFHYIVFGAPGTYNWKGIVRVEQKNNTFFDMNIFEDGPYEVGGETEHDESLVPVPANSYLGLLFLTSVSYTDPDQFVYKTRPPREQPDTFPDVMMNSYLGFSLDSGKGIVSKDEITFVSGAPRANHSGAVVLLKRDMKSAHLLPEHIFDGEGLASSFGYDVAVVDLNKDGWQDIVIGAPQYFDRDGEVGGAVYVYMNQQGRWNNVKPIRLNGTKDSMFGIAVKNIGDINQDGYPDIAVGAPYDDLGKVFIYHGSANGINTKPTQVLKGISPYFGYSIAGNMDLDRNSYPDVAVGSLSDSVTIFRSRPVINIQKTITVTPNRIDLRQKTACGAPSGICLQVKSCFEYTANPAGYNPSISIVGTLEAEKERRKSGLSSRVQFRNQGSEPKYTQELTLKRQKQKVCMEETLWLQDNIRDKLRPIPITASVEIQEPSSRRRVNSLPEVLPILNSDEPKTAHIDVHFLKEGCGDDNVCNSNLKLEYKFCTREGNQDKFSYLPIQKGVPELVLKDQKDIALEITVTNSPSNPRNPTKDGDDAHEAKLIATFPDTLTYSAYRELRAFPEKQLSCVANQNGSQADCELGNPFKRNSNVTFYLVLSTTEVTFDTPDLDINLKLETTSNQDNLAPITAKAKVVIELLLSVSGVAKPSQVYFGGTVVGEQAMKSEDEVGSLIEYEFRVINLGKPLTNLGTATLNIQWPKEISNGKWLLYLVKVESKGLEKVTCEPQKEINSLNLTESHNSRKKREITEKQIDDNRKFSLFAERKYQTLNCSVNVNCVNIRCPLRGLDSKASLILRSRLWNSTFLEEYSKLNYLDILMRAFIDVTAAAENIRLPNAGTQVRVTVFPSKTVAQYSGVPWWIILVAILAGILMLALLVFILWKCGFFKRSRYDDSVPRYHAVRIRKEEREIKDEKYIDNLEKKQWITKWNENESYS
Chain of α6β1 integrin on human cells (human) (P05556 21-798, chain 2 of 2, further chain): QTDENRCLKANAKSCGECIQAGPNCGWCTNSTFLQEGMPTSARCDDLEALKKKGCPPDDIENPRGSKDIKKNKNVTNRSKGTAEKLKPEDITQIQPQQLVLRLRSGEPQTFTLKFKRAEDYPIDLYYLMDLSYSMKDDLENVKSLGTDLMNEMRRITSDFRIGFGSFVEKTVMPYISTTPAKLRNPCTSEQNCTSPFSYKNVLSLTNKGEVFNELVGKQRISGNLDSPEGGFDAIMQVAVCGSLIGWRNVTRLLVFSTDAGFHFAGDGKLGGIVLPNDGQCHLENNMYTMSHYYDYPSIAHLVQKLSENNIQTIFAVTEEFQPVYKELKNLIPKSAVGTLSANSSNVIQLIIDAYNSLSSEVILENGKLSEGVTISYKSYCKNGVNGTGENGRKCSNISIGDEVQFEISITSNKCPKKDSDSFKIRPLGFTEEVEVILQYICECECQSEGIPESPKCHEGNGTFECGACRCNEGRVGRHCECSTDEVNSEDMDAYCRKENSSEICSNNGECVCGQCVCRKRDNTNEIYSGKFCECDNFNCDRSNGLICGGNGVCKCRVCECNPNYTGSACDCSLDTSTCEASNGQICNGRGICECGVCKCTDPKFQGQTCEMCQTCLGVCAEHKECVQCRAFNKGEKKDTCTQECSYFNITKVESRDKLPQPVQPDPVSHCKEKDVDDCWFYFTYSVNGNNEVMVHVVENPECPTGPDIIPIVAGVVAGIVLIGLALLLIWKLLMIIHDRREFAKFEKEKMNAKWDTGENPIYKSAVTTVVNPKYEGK

Row | 1064SK fibroblast adhesion to laminin (A620), with anti-α6 antibody (20 µg/ml) [1] [A620] | 1064SK fibroblast adhesion to laminin (A620), without anti-α6 antibody [1] [A620] | inhibition of 1064SK fibroblast adhesion to laminin by anti-α6 antibody [1] [%] | inhibition of 1064SK fibroblast adhesion by anti-α6 antibody (20 µg/ml) [1] [%] | relative binding capacity of HUVE cells on wild-type Cyr61 (5 µg/ml) after pre-incubation with 40 µg/ml anti-αvβ3 antibody (LM609); no pre-incubation = 100 [2] [%] | relative binding capacity of HUVE cells on wild-type Cyr61 (5 µg/ml) after pre-incubation with 1 mM RGD peptide; no pre-incubation = 100 [2] [%] | relative binding capacity of HUVE cells on wild-type Cyr61 (5 µg/ml) after pre-incubation with 2.5 mM EDTA; no pre-incubation = 100 [2] [%] | Substance
1 | 0.48 | 0.62 | 22 |  |  |  |  | laminin (ligand)
2 |  |  |  | 78 | 42 | 50 | 22 | murine Cyr61 (from UniProt P18406 25-379) (ligand)
